# Laboratory results as given in patent publication US20240109967A1 (University of Pennsylvania, published 2024).
# B1: A1mut2 full-length canine IgG1 (IgGA) mAb (antibody)
# heavy: EVQLVETGGDLVKPGGSLRLSCVASGFSFSSYAMNWVRQAPEKGLQLVGGINSGGSSTYYTDAVKGRFTISRDNAKNTVYLQMNSLRAEDTAVYYCAISNWAYWGQGTLVTVSSASTTAPSVFPLAPSCGSTSGSTVALACLVSGYFPEPVTVSWNSGSLTSGVHTFPSVLQSSGLYSLSSMVTVPSSRWPSETFTCNVVHPASNTKVDKPVFNECRCTDTPPCPVPEPLGGPSVLIFPPKPKDILRITRTPEVTCVVLDLGREDPEVQISWFVDGKEVHTAKTQSREQQFNGTYRVVSVLPIEHQDWLTGKEFKCRVNHIDLPSPIERTISKARGRAHKPSVYVLPPSPKELSSSDTVSVTCLIKDFYPPDIDVEWQSNGQQEPERKHRMTPPQLDEDGSYFLYSKLSVDKSRWQQGDPFTCAVMHETLQNHYTDLSLSHSPGKGGGSGGGSYPYDVPDYA
# light: QAVLNQPASVSGSLGQRVTISCTGSSSDIGKSYVAWYQQLPGTGPRTLINVDGNRASGVPDRFSVSRSGNTATLTISGLQAEDEADYHCSSWDWSLHTYVFGSGTQLTILGQPKASPSVTLFPPSSEELGANKATLVCLISDFYPSGVTVAWKADGSPITQGVETTKPSKQSNNKYAASSYLSLTPDKWKSHSSFSCLVTHEGSTVEKKVAPAECS
# notes: The HA tag is said to be appended to the carboxyl termini of the full-length IgGs and is placed here on the heavy chain; also called A1mut2 mAb; A1mut2 antibody
# B2: A1mut2 full-length canine IgG4 (IgGD) mAb, HA-tagged (antibody)
# heavy: EVQLVETGGDLVKPGGSLRLSCVASGFSFSSYAMNWVRQAPEKGLQLVGGINSGGSSTYYTDAVKGRFTISRDNAKNTVYLQMNSLRAEDTAVYYCAISNWAYWGQGTLVTVSSASTTAPSVFPLAPSCGSTSGSTVALACLVSGYFPEPVTVSWNSGSLTSGVHTFPSVLQSSGLYSLSSMVTVPSSRWPSETFTCNVVHPASNTKVDKPVPKESTCKCISPCPVPESLGGPSVFIFPPKPKDILRITRTPEITCVVLDLGREDPEVQISWFVDGKEVHTAKTQPREQQFNSTYRVVSVLPIEHQDWLTGKEFKCRVNHIGLPSPIERTISKARGQAHQPSVYVLPPSPKELSSSDTVTLTCLIKDFFPPEIDVEWQSNGQPEPESKYHTTAPQLDEDGSYFLYSKLSVDKSRWQQGDPFTCAVMHEALQNHYTDLSLSHSPGKGGGSGGGSYPYDVPDYA
# light: B1 light
# notes: also called A1mut2 IgGD
# B3: recombinant canine CTLA-4 extracellular domain protein (receptor, not shown: small tags and cut ends)
# chain: KGMHVAQPAVVLASSRGVASFVCEYGSSGNAAEVRVTVLRQAGSQMTEVCAATYTVEDELAFLDDSTCTGTSSGNKVNLTIQGLRAMDTGLYICKVELMYPPPYYVGMGNGTQIYVIDPEPCPDSD
# modifications: biotin on the Avi tag (BirA ligase) in the ELISA, panning and interaction assays
# notes: Cloned into pFUSE containing an HA tag, made in 293T cells; The SPR analyte is called soluble cCTLA-4 ECD, and biotinylation is not mentioned there; also called cCTLA-4; cCTLA-4 ECD
# Legend:
# [1] = target: T1, human complement C1q (in normal human complement serum) (human, UniProt P02745 23-245; P02746 28-253; P02747 29-245); assay: complement fixation ELISA: antibody on captured cCTLA-4, human serum complement, anti-human C1q HRP
# T1 construct: also called human serum complement
# T1 sequence (P02745 23-245 limits assumed, chain 1 of 3): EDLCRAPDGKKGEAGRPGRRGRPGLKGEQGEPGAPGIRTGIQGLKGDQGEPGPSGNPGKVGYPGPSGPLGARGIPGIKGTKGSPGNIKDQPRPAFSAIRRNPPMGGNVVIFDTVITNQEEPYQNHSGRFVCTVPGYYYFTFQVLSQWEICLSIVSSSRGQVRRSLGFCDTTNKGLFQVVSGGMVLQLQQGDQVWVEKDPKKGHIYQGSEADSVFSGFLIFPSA
# T1 sequence (P02746 28-253 limits assumed, chain 2 of 3): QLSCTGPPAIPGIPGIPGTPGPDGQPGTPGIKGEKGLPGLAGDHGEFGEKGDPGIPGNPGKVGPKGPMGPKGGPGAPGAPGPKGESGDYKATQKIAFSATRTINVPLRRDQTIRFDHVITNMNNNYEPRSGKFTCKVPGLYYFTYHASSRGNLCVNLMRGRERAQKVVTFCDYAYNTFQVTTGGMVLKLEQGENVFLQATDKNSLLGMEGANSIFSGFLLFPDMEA
# T1 sequence (P02747 29-245 limits assumed, chain 3 of 3): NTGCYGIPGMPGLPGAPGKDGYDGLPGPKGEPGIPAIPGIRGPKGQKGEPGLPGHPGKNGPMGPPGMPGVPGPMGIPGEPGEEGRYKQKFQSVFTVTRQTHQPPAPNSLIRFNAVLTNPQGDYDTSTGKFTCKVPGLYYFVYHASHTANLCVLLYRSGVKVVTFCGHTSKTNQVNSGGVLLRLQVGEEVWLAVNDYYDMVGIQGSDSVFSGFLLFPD
# [2] = target: T2, recombinant human CD86-Fc chimera (carrier free, BioLegend) (human, UniProt P42081 24-247); assay: ELISA: biotinylated cCTLA-4 ECD on plate-bound human CD86-Fc, streptavidin-AP, no antibody
# T2 construct: Commercial protein; also called huCD86-Fc; huCD86; not shown: Fc of the commercial chimera, not described
# T2 sequence (looked up): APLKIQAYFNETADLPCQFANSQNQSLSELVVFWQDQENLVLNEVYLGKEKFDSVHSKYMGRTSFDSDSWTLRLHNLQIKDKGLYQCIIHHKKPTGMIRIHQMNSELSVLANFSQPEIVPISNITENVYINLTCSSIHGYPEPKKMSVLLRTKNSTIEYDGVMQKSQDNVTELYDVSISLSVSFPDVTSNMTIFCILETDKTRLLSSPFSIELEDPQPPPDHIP
# [3] = target: T3, recombinant human CD80-Fc chimera (carrier free, BioLegend) (human, UniProt P33681 35-242); assay: ELISA: biotinylated cCTLA-4 ECD on plate-bound human CD80-Fc, streptavidin-AP, no antibody
# T3 construct: Commercial protein; also called huCD80-Fc; huCD80; not shown: Fc of the commercial chimera, not described
# T3 sequence (looked up): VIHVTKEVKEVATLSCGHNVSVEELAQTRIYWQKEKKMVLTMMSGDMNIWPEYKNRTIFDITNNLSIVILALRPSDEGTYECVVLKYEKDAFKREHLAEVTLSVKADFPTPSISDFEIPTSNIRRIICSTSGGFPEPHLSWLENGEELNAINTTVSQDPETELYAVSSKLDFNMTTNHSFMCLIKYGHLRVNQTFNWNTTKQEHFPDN
Binder,binding result [1],binding result [2],binding result [3]
B1,no binding (tested: 10 ug/ml antibody),–,–
B2,no binding (tested: 10 ug/ml antibody),–,–
B3,–,binds,binds
